Measurements taken from patent US20220402980A1, “CHROMOGRANIN A-DERIVED PEPTIDES AND USES THEREOF” (OSPEDALE SAN RAFFAELE S.R.L., priority 2019, published 2022).

Molecular target: wild-type human integrin α5β1 (octyl β-D-glucopyranoside preparation) (human), P08648
Assay: competitive binding assay on α5β1-coated plates, isoDGR/STV-HRP probe

Sequence of wild-type human integrin α5β1 (octyl β-D-glucopyranoside preparation) (human), P08648 (P08648 42-1049, chain 1 of 2): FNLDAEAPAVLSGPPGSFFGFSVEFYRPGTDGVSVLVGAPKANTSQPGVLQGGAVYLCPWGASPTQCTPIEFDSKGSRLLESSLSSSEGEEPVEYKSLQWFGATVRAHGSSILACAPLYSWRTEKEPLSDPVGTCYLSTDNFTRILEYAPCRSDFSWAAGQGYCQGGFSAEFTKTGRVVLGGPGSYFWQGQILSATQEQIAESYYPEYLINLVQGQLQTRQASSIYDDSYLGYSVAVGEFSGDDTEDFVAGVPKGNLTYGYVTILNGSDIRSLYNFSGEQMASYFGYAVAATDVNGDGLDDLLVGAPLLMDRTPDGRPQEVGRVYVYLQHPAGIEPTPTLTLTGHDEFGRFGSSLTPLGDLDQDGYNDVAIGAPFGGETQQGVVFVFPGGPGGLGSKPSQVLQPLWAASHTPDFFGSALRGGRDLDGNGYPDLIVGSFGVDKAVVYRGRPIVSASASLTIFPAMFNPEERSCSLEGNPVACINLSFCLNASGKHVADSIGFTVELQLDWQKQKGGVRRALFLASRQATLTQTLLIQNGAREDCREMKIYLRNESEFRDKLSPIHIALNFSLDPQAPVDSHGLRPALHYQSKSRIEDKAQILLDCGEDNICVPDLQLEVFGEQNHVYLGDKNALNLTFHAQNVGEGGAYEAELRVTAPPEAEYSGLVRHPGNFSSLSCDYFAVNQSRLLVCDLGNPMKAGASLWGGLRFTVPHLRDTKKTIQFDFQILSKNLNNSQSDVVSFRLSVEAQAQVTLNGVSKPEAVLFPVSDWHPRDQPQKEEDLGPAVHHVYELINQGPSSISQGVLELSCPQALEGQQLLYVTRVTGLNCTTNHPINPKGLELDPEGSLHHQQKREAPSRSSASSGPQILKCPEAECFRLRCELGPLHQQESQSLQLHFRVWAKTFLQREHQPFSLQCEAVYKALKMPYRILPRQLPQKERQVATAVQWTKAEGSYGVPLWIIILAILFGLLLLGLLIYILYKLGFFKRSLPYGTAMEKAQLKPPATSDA
Sequence of wild-type human integrin α5β1 (octyl β-D-glucopyranoside preparation) (human), P08648 (P05556 21-798, chain 2 of 2, further chain): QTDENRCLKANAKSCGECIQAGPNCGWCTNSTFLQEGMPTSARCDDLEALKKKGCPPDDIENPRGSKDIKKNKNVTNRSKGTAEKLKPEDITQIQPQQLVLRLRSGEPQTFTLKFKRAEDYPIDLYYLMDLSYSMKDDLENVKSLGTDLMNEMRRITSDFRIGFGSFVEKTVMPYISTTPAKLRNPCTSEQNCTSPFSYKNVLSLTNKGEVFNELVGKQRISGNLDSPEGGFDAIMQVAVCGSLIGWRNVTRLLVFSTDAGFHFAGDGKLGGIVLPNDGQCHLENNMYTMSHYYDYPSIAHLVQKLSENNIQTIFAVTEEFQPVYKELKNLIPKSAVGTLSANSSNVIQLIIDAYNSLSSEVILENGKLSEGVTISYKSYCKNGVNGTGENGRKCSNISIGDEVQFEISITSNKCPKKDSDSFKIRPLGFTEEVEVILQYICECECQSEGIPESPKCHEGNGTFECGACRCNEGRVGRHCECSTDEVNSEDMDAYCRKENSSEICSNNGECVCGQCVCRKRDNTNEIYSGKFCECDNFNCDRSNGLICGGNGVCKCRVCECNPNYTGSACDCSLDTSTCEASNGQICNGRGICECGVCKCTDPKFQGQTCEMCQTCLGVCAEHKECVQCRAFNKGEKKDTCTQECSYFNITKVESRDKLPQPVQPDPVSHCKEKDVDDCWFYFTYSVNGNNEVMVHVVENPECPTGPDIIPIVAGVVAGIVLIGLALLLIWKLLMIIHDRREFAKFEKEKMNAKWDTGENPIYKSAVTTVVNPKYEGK

## NAVPNLRGDLQVLAQKVART (modifications not checked) [foot and mouth disease virus-derived peptide A20FMDV2]
  Ki: 2.32 µM
